# B1: PfHPPDm-F372A-G413W: Pseudomonas fluorescens HPPD with F372A and G336W (position 413 of SEQ ID NO: 1), SEQ ID NO: 416 (protein)
# chain: MADLYENPMGLMGFEFIEFASPTPGTLEPIFEIMGFTKVATHRSKNVHLYRQGEINLILNNEPNSIASYFAAEHGPSVCGMAFRVKDSQKAYNRALELGAQPIHIDTGPMELNLPAIKGIGGAPLYLIDRFGEGSSIYDIDFVYLEGVERNPVGAGLKVIDHLTHNVYRGRMVYWANFYEKLFNFREARYFDIKGEYTGLTSKAMSAPDGMIRIPLNEESSKGAGQIEEFLMQFNGEGIQHVAFLTDDLVKTWDALKKIGMRFMTAPPDTYYEMLEGRLPDHGEPVDQLQARGILLDGSSVEGDKRLLLQIASETLMGPVFFEFIQRKGDDGFGEWNFKALFESIERDQVRRGVLTAD
# modifications: PfHPPDm-F372A-G413W Amino Acid Sequence
# B2: N5HPPDm-F372V: Sphingobium sp. N5 HPPD mutant F372V, SEQ ID NO: 397 (protein)
# chain: MAADSENPLGLHGFAFAEFTSPDPAAMARQFEQLGFVPAARRKDRGLTLYRQGRIAFILNAGEGEQASAFRAAHGPSANGMAFNVADAKAAHRHAIQSGATDADTAQSALPGTYAIEGIGDSLLYLVDSDPFADWDEVPGWREASAERGVGLDLLDHLTHNVRRGQMRVWSEFYATLFGFEEQKFFDIKGQATGLFSQAMIAPDHEIRIPLNESQDDNSQIEEFIREYNGEGIQHLALTTPDIYSTVEKLRANGVRLQDTIDTYYDLVDERVPGHGEDLARLRKNRILIDGDVHDEGLLLQIVTETMFGPIFFEIIQRKGNEGFGNGNFQVLFESIELDQIRRGVVTVDA
# modifications: N5HPPDm-F372V Amino Acid Sequence
# B3: GsHPPDm-F372V: Gossypium hirsutum HPPD mutant F372V, SEQ ID NO: 351 (protein)
# chain: MVQTNQSGSGNDFKLVGFSNFVRSNPKSDRFTVKRFHHIEFWCTDATNVARRFSWGLGMQFVAKSDLSTGNLTHASYLLRSRDLNFLFTAPYSPSIAVAQNLSPQSTASIPSFDHSLCRSFAATHGLGVRAIAIEVDDAETAFTTSVTHGALPFCPPTPLGDVATIAEVKLYGDVVLRYVSYTTTINSDHDFLPGFEKIEDTLSYPLDYGLRRLDHAVGNVPELGPAVSYVKSFTGFHEFAEFTAEDVGTSESGLNSVVLANNEEMVLLPMNEPVFGTKRKSQIQTYLEHNEGAGVQHLALVSEDIFKTLREMRKRSFVGGFEFMPSPPPTYYKKLKQRAGDILSDEQIKECEELGILVDRDDQGTLLQIVTKPVGDRPTIFIEIIQRIGCMVKDEEGKQYQKGGCGGFGKGNFSELFKSIEEYEKSLEAKQSQNP
# modifications: GsHPPDm-F372V Amino Acid Sequence
# B4: TaHPPDm-F372V: Triticum aestivum HPPD mutant F372V, SEQ ID NO: 353 (protein)
# chain: MPPTPTTPAATGAGAAAAVTPEHARPRRMVRFNPRSDRFHTLSFHHVEFWCADAASAAGRFAFALGAPLAARSDLSTGNSVHASQLLRSGNLAFLFTAPYANGCDAATASLPSFSADAARRFSADHGLAVRSIALRVADAAEAFRASVDGGARPAFSPVDLGRGFGFAEVELYGDVVLRFVSHPDGTDVPFLPGFEGVSNPGAVDYGLTRFDHVVGNVPELASAAAYVAGFTGFHEFAEFTTEDVGTAESGLNSMVLANNSEGVLLPLNEPVHGTKRRSQIQTFLEHHGGPGVQHIAVASSDVLRTLREMRARSAMGGFDFLPPPLPKYYEGVRRIAGDVLSEAQIKECQELGVLVDRDDQGVLLQIVTKPVGDRPTLFLEMIQRIGCMEKDERGEEYQKGGCGGFGKGNFSELFKSIEDYEKSLEAKQSAAVQGS
# modifications: TaHPPDm-F372V Amino Acid Sequence
# Experiments:
# [1] = test system: Arabidopsis thaliana T1 plants; assay: Topramezone tolerance of transgenic Arabidopsis thaliana T1 plants (pesticide damage grade by bleached leaf area, score, resistance evaluation); assay type: in vivo; conditions: for Grade 0 (number of plants) / Grade 1 (number of plants) / Grade 2 (number of plants) / Grade 3 (number of plants) / Resistance Grade / score: mutation combination, Table 8; for Resistance evaluation: HPPD F372V mutants, Table 7
# Procedure, shortened: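 Herbicide tolerance was judged per plant on a bleaching scale (grade 0 no bleaching to grade 3 fully bleached) 7 DAT. Topramezone doses were 0, 25, 50 and 100 g ai/ha on 18-day-old T1 and wild-type plants.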
# soybean T1 plants = assay: Herbicide tolerance of transgenic soybean T1 plants to topramezone; assay type: in vivo; conditions: topramezone 50 and 100 g ai/ha, 7 DAT, compared to control vector DBN11375NN and wild-type
# From the text: The Arabidopsisthaliana T1 plants into which the AsHPPDm-F372A-02 nucleotide sequence was introduced, Arabidopsis thaliana T1 plants into which the AsHPPD-02 nucleotide sequence was introduced and wild-type Arabidopsisthaliana plants (18 days after sowing) were sprayed with topramezone at four different concentrations, i.e., 25 g ai/ha (one-fold field concentration, 1×), 50 g ai/ha (two-fold field concentration, 2×), 100 g ai/ha (four-fold field concentration, 4×) and 0 g ai/ha (water, 0×) to determine the tolerance of Arabidopsisthaliana to the herbicide. The degree of damage caused by the herbicide was measured for each plant according to the proportion of bleached leaf area (the proportion of bleached leaf area=bleached leaf area/total leaf area×100%) 7 days after spraying (7 DAT): the case where there is basically no bleached phenotype is defined as grade 0, the case where the proportion of bleached leaf area is less than 50% is defined as grade 1,the case where the proportion of bleached leaf area is more than 50% is defined as grade 2, and the case where the proportion of bleached leaf area is 100% grade is defined as grade 3.
# The soybean T1 plants into which the AsHPPDm-F372A-02 nucleotide sequence was introduced, soybean T1 plants into which the ZmHPPDm-F372A-02 nucleotide sequence was introduced, soybean T1 plants into which the PfHPPDm-F372A-02 nucleotide sequence was introduced, soybean T1 plants into which the AsHPPDm-F372A-A110 nucleotide sequence was introduced, soybean T1 plants into which, the PfHPPDm-F372A-G413W nucleotide sequence was introduced, soybean T1 plants into which the control vector DBN11375NN was introduced and wild-type soybean plants (V3-V4 at seedling stage) were sprayed with topramezone at two different concentrations respectively, i.e. 50 g ai/ha (2-fold field concentration, 2 ×) and 100 g ai/ha (4-fold field concentration, 4 ×) to detect the herbicide tolerance of soybean plants. According to the method in point 6 of Example 1, after 7 days of spraying (7 DAT), the damage degree of each plant by the herbicide was statistically analyzed, and the scoring and resistance evaluation were carried out accordingly. The soybean plants into which the AsHPPDm-F372A-02 nucleotide sequence was introduced were of two strains in total (S1 and S2), the soybean plants into which the ZmHPPDm-F372A-02 nucleotide sequence was introduced were of two strains in total (S3 and S4), the soybean plants into which the PfHPPDm-F372A-02 nucleotide sequence was introduced were of two strains in total (S5 and S6), the soybean plants into which the AsHPPDm-F372A-Al 10 nucleotide sequence was introduced were of two strains in total (S7 and S8), the soybean plants into which the PfHPPDm-F372A-G413W nucleotide sequence was introduced were of two strains in total (S9 and S10), the soybean plants into which the control vector DBN11375NN nucleotide sequence was introduced were of one strain in total (S11), and the wild-type soybean plants were of one strain in total (CK1); and 8 plants were selected from each strain and detected.
molecule,measurement,setting,value
B1,Grade 0 (number of plants),[1]; topramezone 25 g ai/ha,20
same,Grade 1 (number of plants),[1]; topramezone 25 g ai/ha,0
same,Grade 2 (number of plants),[1]; topramezone 25 g ai/ha,0
same,Grade 3 (number of plants),[1]; topramezone 25 g ai/ha,0
same,Resistance Grade,[1]; topramezone 25 g ai/ha,Highly resistant
same,score,[1]; topramezone 25 g ai/ha,0
same,Grade 0 (number of plants),[1]; topramezone 100 g ai/ha,20
same,Grade 1 (number of plants),[1]; topramezone 100 g ai/ha,0
same,Grade 2 (number of plants),[1]; topramezone 100 g ai/ha,0
same,Grade 3 (number of plants),[1]; topramezone 100 g ai/ha,0
same,Resistance Grade,[1]; topramezone 100 g ai/ha,Highly resistant
same,score,[1]; topramezone 100 g ai/ha,0
same,"tolerance to topramezone, in words",soybean T1 plants,higher tolerance
B2,Resistance evaluation,[1]; topramezone 25 g ai/ha (1x),Highly resistant
same,Resistance evaluation,[1]; topramezone 100 g ai/ha (4x),Highly resistant
B3,Resistance evaluation,[1]; topramezone 25 g ai/ha (1x),Moderately resistant
same,Resistance evaluation,[1]; topramezone 100 g ai/ha (4x),Non-resistant
B4,Resistance evaluation,[1]; topramezone 25 g ai/ha (1x),Highly resistant
same,Resistance evaluation,[1]; topramezone 100 g ai/ha (4x),Moderately resistant
